Data published in the RNAGym collection of RNA variant scans (doi:10.1093/molbev/msab373).

B1: Azoarcus group I ribozyme (parent)
chain: GUGCCUUGCGCCGGGAAACCACGCAAGGGAUGGUGUCAAAUUCGGCGAAACCUAAGCGCCCGCCCGGGCGUAUGGCAACGCCGAGCCAAGCUUCGGCGCCUGCGCCGAUGAAGGUGUAGAGACUAGACGGCACCCACCUAAGGCAAACGCUAUGGUGAAGGCAUAGUCCAGGGAGUGGCGAAAGUCACACAAACCGG

Variants of: B1
Assay: reverse-splicing fitness (ratio to wild type); higher = more active; in vitro selection; Mg2+ level not given
In short: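 An in vitro group I ribozyme library with randomized positions was T7-transcribed and gel-purified. In triplicate, 10 pmol RNA in EPPS pH 7.5 was reacted with 50 pmoles of a 30-nt RNA substrate for 1 h at 37 °C across several added MgCl2 levels (1–48 mM), then stopped with EDTA. Products were reverse transcribed from a substrate-complementary primer, PCR-amplified and sequenced (HiSeq 4000). Fitness is a variant's read proportion after selection over that before, normalised to wild type.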

Variant	reverse-splicing fitness
GUGCCUUGCGCCGGGAAACCACGCAAGGGAUGGUGUCAAAUUCGGCGAAACCUAAGCGCCCGCCCGGGCGUAUGGCAACGCAGAGCCAAGCUUCGGCGCCUGCGCCGAUGGAGGUGUAGUGACUAGACGGCACCCACCUAAGGCUAACGAUAUGGUGAAGGCAUAGUCAAGGGAGAGGCGAAAGUCACACAAACCGG	0.00224
GUGCCUUGCGCCGGGAAACCACGCAAGGGAUGGUGUCAAAUUCGGCGAAACCUAAGCGCCCGCCCGGGCGUAUGGCAACGCAGAGCCAAGCUUCGGCGCCUGCGCCGAUGGAGGUGUAGUGACUAGACGGCACCCACCUAAGGCUAACGAUAUGGUGAAGGCAUAGUCAAGGGAGCGGCGAAAGUCACACAAACCGG	0.00213
GUGCCUUGCGCCGGGAAACCACGCAAGGGAUGGUGUCAAAUUCGGCGAAACCUAAGCGCCCGCCCGGGCGUAUGGCAACGCAGAGCCAAGCUUCGGCGCCUGCGCCGAUGGAGGUGUAGUGACUAGACGGCACCCACCUAAGGCUAACGAUAUGGUGAAGGCAUAGUCAAGGGAGGGGCGAAAGUCACACAAACCGG	0.00187
GUGCCUUGCGCCGGGAAACCACGCAAGGGAUGGUGUCAAAUUCGGCGAAACCUAAGCGCCCGCCCGGGCGUAUGGCAACGCAGAGCCAAGCUUCGGCGCCUGCGCCGAUGGAGGUGUAGUGACUAGACGGCACCCACCUAAGGCUAACGAUAUGGUGAAGGCAUAGUCGAGGGAGUGGCGAAAGUCACACAAACCGG	0.00258
GUGCCUUGCGCCGGGAAACCACGCAAGGGAUGGUGUCAAAUUCGGCGAAACCUAAGCGCCCGCCCGGGCGUAUGGCAACGCAGAGCCAAGCUUCGGCGCCUGCGCCGAUGGAGGUGUAGUGACUAGACGGCACCCACCUAAGGCUAACGAUAUGGUGAAGGCAUAGUCGAGGGAGAGGCGAAAGUCACACAAACCGG	0.00301
GUGCCUUGCGCCGGGAAACCACGCAAGGGAUGGUGUCAAAUUCGGCGAAACCUAAGCGCCCGCCCGGGCGUAUGGCAACGCAGAGCCAAGCUUCGGCGCCUGCGCCGAUGGAGGUGUAGUGACUAGACGGCACCCACCUAAGGCUAACGAUAUGGUGAAGGCAUAGUCGAGGGAGCGGCGAAAGUCACACAAACCGG	0.00264
GUGCCUUGCGCCGGGAAACCACGCAAGGGAUGGUGUCAAAUUCGGCGAAACCUAAGCGCCCGCCCGGGCGUAUGGCAACGCAGAGCCAAGCUUCGGCGCCUGCGCCGAUGGAGGUGUAGUGACUAGACGGCACCCACCUAAGGCUAACGAUAUGGUGAAGGCAUAGUCGAGGGAGGGGCGAAAGUCACACAAACCGG	0.0019
GUGCCUUGCGCCGGGAAACCACGCAAGGGAUGGUGUCAAAUUCGGCGAAACCUAAGCGCCCGCCCGGGCGUAUGGCAACGCAGAGCCAAGCUUCGGCGCCUGCGCCGAUGGAGGUGUAGUGACUAGACGGCACCCACCUAAGGCUAACGAUAUGGUGAAGGCAUAGUCUAGGGAGUGGCGAAAGUCACACAAACCGG	0.00275
GUGCCUUGCGCCGGGAAACCACGCAAGGGAUGGUGUCAAAUUCGGCGAAACCUAAGCGCCCGCCCGGGCGUAUGGCAACGCAGAGCCAAGCUUCGGCGCCUGCGCCGAUGGAGGUGUAGUGACUAGACGGCACCCACCUAAGGCUAACGAUAUGGUGAAGGCAUAGUCUAGGGAGAGGCGAAAGUCACACAAACCGG	0.00277
GUGCCUUGCGCCGGGAAACCACGCAAGGGAUGGUGUCAAAUUCGGCGAAACCUAAGCGCCCGCCCGGGCGUAUGGCAACGCAGAGCCAAGCUUCGGCGCCUGCGCCGAUGGAGGUGUAGUGACUAGACGGCACCCACCUAAGGCUAACGAUAUGGUGAAGGCAUAGUCUAGGGAGCGGCGAAAGUCACACAAACCGG	0.00285
GUGCCUUGCGCCGGGAAACCACGCAAGGGAUGGUGUCAAAUUCGGCGAAACCUAAGCGCCCGCCCGGGCGUAUGGCAACGCAGAGCCAAGCUUCGGCGCCUGCGCCGAUGGAGGUGUAGUGACUAGACGGCACCCACCUAAGGCUAACGAUAUGGUGAAGGCAUAGUCUAGGGAGGGGCGAAAGUCACACAAACCGG	0.0018
GUGCCUUGCGCCGGGAAACCACGCAAGGGAUGGUGUCAAAUUCGGCGAAACCUAAGCGCCCGCCCGGGCGUAUGGCAACGCAGAGCCAAGCUUCGGCGCCUGCGCCGAUGGAGGUGUAGUGACUAGACGGCACCCACCUAAGGCUAACGAUAUGGUGAAGGCAUAGUCCAGGGAGAGGCGAAAGUCACACAAACCGG	0.00478
GUGCCUUGCGCCGGGAAACCACGCAAGGGAUGGUGUCAAAUUCGGCGAAACCUAAGCGCCCGCCCGGGCGUAUGGCAACGCAGAGCCAAGCUUCGGCGCCUGCGCCGAUGGAGGUGUAGUGACUAGACGGCACCCACCUAAGGCUAACGAUAUGGUGAAGGCAUAGUCCAGGGAGCGGCGAAAGUCACACAAACCGG	0.00602
GUGCCUUGCGCCGGGAAACCACGCAAGGGAUGGUGUCAAAUUCGGCGAAACCUAAGCGCCCGCCCGGGCGUAUGGCAACGCAGAGCCAAGCUUCGGCGCCUGCGCCGAUGGAGGUGUAGUGACUAGACGGCACCCACCUAAGGCUAACGAUAUGGUGAAGGCAUAGUCCAGGGAGGGGCGAAAGUCACACAAACCGG	0.00197
GUGCCUUGCGCCGGGAAACCACGCAAGGGAUGGUGUCAAAUUCGGCGAAACCUAAGCGCCCGCCCGGGCGUAUGGCAACGCAGAGCCAAGCUUCGGCGCCUGCGCCGAUGGAGGUGUAGUGACUAGACGGCACCCACCUAAGGCUAACGGUAUGGUGAAGGCAUAGUCCAGGGAGUGGCGAAAGUCACACAAACCGG	0.00746
GUGCCUUGCGCCGGGAAACCACGCAAGGGAUGGUGUCAAAUUCGGCGAAACCUAAGCGCCCGCCCGGGCGUAUGGCAACGCAGAGCCAAGCUUCGGCGCCUGCGCCGAUGGAGGUGUAGUGACUAGACGGCACCCACCUAAGGCUAACGGUAUGGUGAAGGCAUAGUCAAGGGAGUGGCGAAAGUCACACAAACCGG	0.00373
GUGCCUUGCGCCGGGAAACCACGCAAGGGAUGGUGUCAAAUUCGGCGAAACCUAAGCGCCCGCCCGGGCGUAUGGCAACGCAGAGCCAAGCUUCGGCGCCUGCGCCGAUGGAGGUGUAGUGACUAGACGGCACCCACCUAAGGCUAACGGUAUGGUGAAGGCAUAGUCAAGGGAGAGGCGAAAGUCACACAAACCGG	0.0039
GUGCCUUGCGCCGGGAAACCACGCAAGGGAUGGUGUCAAAUUCGGCGAAACCUAAGCGCCCGCCCGGGCGUAUGGCAACGCAGAGCCAAGCUUCGGCGCCUGCGCCGAUGGAGGUGUAGUGACUAGACGGCACCCACCUAAGGCUAACGGUAUGGUGAAGGCAUAGUCAAGGGAGCGGCGAAAGUCACACAAACCGG	0.00338
GUGCCUUGCGCCGGGAAACCACGCAAGGGAUGGUGUCAAAUUCGGCGAAACCUAAGCGCCCGCCCGGGCGUAUGGCAACGCAGAGCCAAGCUUCGGCGCCUGCGCCGAUGGAGGUGUAGUGACUAGACGGCACCCACCUAAGGCUAACGGUAUGGUGAAGGCAUAGUCAAGGGAGGGGCGAAAGUCACACAAACCGG	0.00276
GUGCCUUGCGCCGGGAAACCACGCAAGGGAUGGUGUCAAAUUCGGCGAAACCUAAGCGCCCGCCCGGGCGUAUGGCAACGCAGAGCCAAGCUUCGGCGCCUGCGCCGAUGGAGGUGUAGUGACUAGACGGCACCCACCUAAGGCUAACGGUAUGGUGAAGGCAUAGUCGAGGGAGUGGCGAAAGUCACACAAACCGG	0.00311
GUGCCUUGCGCCGGGAAACCACGCAAGGGAUGGUGUCAAAUUCGGCGAAACCUAAGCGCCCGCCCGGGCGUAUGGCAACGCAGAGCCAAGCUUCGGCGCCUGCGCCGAUGGAGGUGUAGUGACUAGACGGCACCCACCUAAGGCUAACGGUAUGGUGAAGGCAUAGUCGAGGGAGAGGCGAAAGUCACACAAACCGG	0.00352
GUGCCUUGCGCCGGGAAACCACGCAAGGGAUGGUGUCAAAUUCGGCGAAACCUAAGCGCCCGCCCGGGCGUAUGGCAACGCAGAGCCAAGCUUCGGCGCCUGCGCCGAUGGAGGUGUAGUGACUAGACGGCACCCACCUAAGGCUAACGGUAUGGUGAAGGCAUAGUCGAGGGAGCGGCGAAAGUCACACAAACCGG	0.00281
GUGCCUUGCGCCGGGAAACCACGCAAGGGAUGGUGUCAAAUUCGGCGAAACCUAAGCGCCCGCCCGGGCGUAUGGCAACGCAGAGCCAAGCUUCGGCGCCUGCGCCGAUGGAGGUGUAGUGACUAGACGGCACCCACCUAAGGCUAACGGUAUGGUGAAGGCAUAGUCGAGGGAGGGGCGAAAGUCACACAAACCGG	0.00259
GUGCCUUGCGCCGGGAAACCACGCAAGGGAUGGUGUCAAAUUCGGCGAAACCUAAGCGCCCGCCCGGGCGUAUGGCAACGCAGAGCCAAGCUUCGGCGCCUGCGCCGAUGGAGGUGUAGUGACUAGACGGCACCCACCUAAGGCUAACGGUAUGGUGAAGGCAUAGUCUAGGGAGUGGCGAAAGUCACACAAACCGG	0.00268
GUGCCUUGCGCCGGGAAACCACGCAAGGGAUGGUGUCAAAUUCGGCGAAACCUAAGCGCCCGCCCGGGCGUAUGGCAACGCAGAGCCAAGCUUCGGCGCCUGCGCCGAUGGAGGUGUAGUGACUAGACGGCACCCACCUAAGGCUAACGGUAUGGUGAAGGCAUAGUCUAGGGAGAGGCGAAAGUCACACAAACCGG	0.00252
GUGCCUUGCGCCGGGAAACCACGCAAGGGAUGGUGUCAAAUUCGGCGAAACCUAAGCGCCCGCCCGGGCGUAUGGCAACGCAGAGCCAAGCUUCGGCGCCUGCGCCGAUGGAGGUGUAGUGACUAGACGGCACCCACCUAAGGCUAACGGUAUGGUGAAGGCAUAGUCUAGGGAGCGGCGAAAGUCACACAAACCGG	0.00353
GUGCCUUGCGCCGGGAAACCACGCAAGGGAUGGUGUCAAAUUCGGCGAAACCUAAGCGCCCGCCCGGGCGUAUGGCAACGCAGAGCCAAGCUUCGGCGCCUGCGCCGAUGGAGGUGUAGUGACUAGACGGCACCCACCUAAGGCUAACGGUAUGGUGAAGGCAUAGUCUAGGGAGGGGCGAAAGUCACACAAACCGG	0.0026
GUGCCUUGCGCCGGGAAACCACGCAAGGGAUGGUGUCAAAUUCGGCGAAACCUAAGCGCCCGCCCGGGCGUAUGGCAACGCAGAGCCAAGCUUCGGCGCCUGCGCCGAUGGAGGUGUAGUGACUAGACGGCACCCACCUAAGGCUAACGGUAUGGUGAAGGCAUAGUCCAGGGAGAGGCGAAAGUCACACAAACCGG	0.0037
GUGCCUUGCGCCGGGAAACCACGCAAGGGAUGGUGUCAAAUUCGGCGAAACCUAAGCGCCCGCCCGGGCGUAUGGCAACGCAGAGCCAAGCUUCGGCGCCUGCGCCGAUGGAGGUGUAGUGACUAGACGGCACCCACCUAAGGCUAACGGUAUGGUGAAGGCAUAGUCCAGGGAGCGGCGAAAGUCACACAAACCGG	0.00587
GUGCCUUGCGCCGGGAAACCACGCAAGGGAUGGUGUCAAAUUCGGCGAAACCUAAGCGCCCGCCCGGGCGUAUGGCAACGCAGAGCCAAGCUUCGGCGCCUGCGCCGAUGGAGGUGUAGUGACUAGACGGCACCCACCUAAGGCUAACGGUAUGGUGAAGGCAUAGUCCAGGGAGGGGCGAAAGUCACACAAACCGG	0.0023
